Values joined by “and” are separate entries in the source; they are usually repeats but may differ in a detail not shown here. Equal values may be shown once.
How the values were obtained:
PLGF [1] = target: T1, PLGF (UniProt P49763-2 21-149, limits assumed, biotinylated); assay: direct bind ELISA, N-term VD;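 note: antibody or DVD-Ig preparations bound to immobilized target antigen on ELISA plates, 1 h at room temperature, TMB detection read as absorbance at 450 nm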
T1 construct: ELISA antigen; also called P1GF
T1 sequence (looked up): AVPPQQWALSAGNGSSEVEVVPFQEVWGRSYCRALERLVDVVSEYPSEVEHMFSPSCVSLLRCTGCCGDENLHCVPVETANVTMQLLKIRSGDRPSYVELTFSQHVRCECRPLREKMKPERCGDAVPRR

EGFR [2] = target: T2, EGFR (UniProt P00533 25-645, limits assumed, biotinylated); assay: direct bind ELISA, C-term VD;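 note: ELISA with antibody or DVD-Ig preparations applied to target antigen-coated plates for 1 h at room temperature, TMB colour development, absorbance read at 450 nm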
T2 construct: ELISA antigen; construct not described

EGFR [3] = target: T2, EGFR; assay: direct bind ELISA, N-term VD;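 note: antibody or DVD-Ig preparations bound to immobilized target antigen on ELISA plates, 1 h at room temperature, TMB detection read as absorbance at 450 nm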
PLGF [4] = target: T1, PLGF; assay: direct bind ELISA, C-term VD;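 note: ELISA with antibody or DVD-Ig preparations applied to target antigen-coated plates for 1 h at room temperature, TMB colour development, absorbance read at 450 nm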
DLL-4 = target: T3, DLL-4 (UniProt Q9NR61 27-524, limits assumed, biotinylated); assay: direct bind ELISA, N-term VD;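 note: antibody or DVD-Ig preparations bound to immobilized target antigen on ELISA plates, 1 h at room temperature, TMB detection read as absorbance at 450 nm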
T3 construct: ELISA antigen

IGF1R = target: T4, IGF1R (UniProt P08069 31-932, limits assumed, biotinylated); assay: direct bind ELISA, ref Ab
T4 construct: ELISA antigen

ErbB3 = target: T5, ErbB3 (UniProt P21860 20-643, limits assumed, biotinylated); assay: direct bind ELISA, ref Ab
T5 construct: ELISA antigen

RON = RON (UniProt Q04912 25-571, biotinylated); assay: direct bind ELISA, ref Ab

B1: DVD784 (bispecific antibody)
VH: QVQLQQSGAELVKPGASVKISCKASGYTFTDYYINWVKLAPGQGLEWIGWIYPGSGNTKYNEKFKGKATLTIDTSSSTAYMQLSSLTSEDTAVYFCVRDSPFFDYWGQGTLLTVSSASTKGPSVFPLAPQVQLQESGPGLVKPSQTLSLTCTVSGYSISSDFAWNWIRQPPGKGLEWMGYISYSGNTRYQPSLKSRITISRDTSKNQFFLKLNSVTAADTATYYCVTAGRGFPYWGQGTLVTVSS
VL: DIVLTQSPDSLAVSLGERVTMNCKSSQSLLNSGMRKSFLAWYQQKPGQSPKLLIYWASTRESGVPDRFTGSGSGTDFTLTISSVQAEDVAVYYCKQSYHLFTFGSGTKLEIKRTVAAPSVFIFPPDIQMTQSPSSMSVSVGDRVTITCHSSQDINSNIGWLQQKPGKSFKGLIYHGTNLDDGVPSRFSGSGSGTDYTLTISSLQPEDFATYYCVQYAQFPWTFGGGTKLEIKR
notes: DVD-Ig; HC L, LC L; variable parts only
Q: What does the source list for B1?
A: EC50 (PLGF [1]): 0.26 nM; EC50 (EGFR [2]): 41.4 nM

B2: DVD814 (bispecific antibody)
VH: B1 VH
VL: DIVLTQSPDSLAVSLGERVTMNCKSSQSLLNSGMRKSFLAWYQQKPGQSPKLLIYWASTRESGVPDRFTGSGSGTDFTLTISSVQAEDVAVYYCKQSYHLFTFGSGTKLEIKRTVAAPDIQMTQSPSSMSVSVGDRVTITCHSSQDINSNIGWLQQKPGKSFKGLIYHGTNLDDGVPSRFSGSGSGTDYTLTISSLQPEDFATYYCVQYAQFPWTFGGGTKLEIKR
notes: DVD-Ig; HC L, LC S; variable parts only
Q: Which results are given for B2?
A: EC50 (PLGF [1]): 0.23 nM; EC50 (EGFR [2]): 50.4 nM

B3: DVD844 (bispecific antibody)
VH: QVQLQQSGAELVKPGASVKISCKASGYTFTDYYINWVKLAPGQGLEWIGWIYPGSGNTKYNEKFKGKATLTIDTSSSTAYMQLSSLTSEDTAVYFCVRDSPFFDYWGQGTLLTVSSASTKGPQVQLQESGPGLVKPSQTLSLTCTVSGYSISSDFAWNWIRQPPGKGLEWMGYISYSGNTRYQPSLKSRITISRDTSKNQFFLKLNSVTAADTATYYCVTAGRGFPYWGQGTLVTVSS
VL: B1 VL
notes: DVD-Ig; HC S, LC L; variable parts only
Q: What does the source list for B3?
A: EC50 (PLGF [1]): 0.23 nM; EC50 (EGFR [2]): 45.5 nM

B4: DVD783 (bispecific antibody)
VH: QVQLQESGPGLVKPSQTLSLTCTVSGYSISSDFAWNWIRQPPGKGLEWMGYISYSGNTRYQPSLKSRITISRDTSKNQFFLKLNSVTAADTATYYCVTAGRGFPYWGQGTLVTVSSASTKGPSVFPLAPQVQLQQSGAELVKPGASVKISCKASGYTFTDYYINWVKLAPGQGLEWIGWIYPGSGNTKYNEKFKGKATLTIDTSSSTAYMQLSSLTSEDTAVYFCVRDSPFFDYWGQGTLLTVSS
VL: DIQMTQSPSSMSVSVGDRVTITCHSSQDINSNIGWLQQKPGKSFKGLIYHGTNLDDGVPSRFSGSGSGTDYTLTISSLQPEDFATYYCVQYAQFPWTFGGGTKLEIKRTVAAPSVFIFPPDIVLTQSPDSLAVSLGERVTMNCKSSQSLLNSGMRKSFLAWYQQKPGQSPKLLIYWASTRESGVPDRFTGSGSGTDFTLTISSVQAEDVAVYYCKQSYHLFTFGSGTKLEIKR
notes: as for B1
Q: For B4, which EC50 (EGFR [3]) is on record?
A: 3.88 nM

Q: What about the EC50 (PLGF [4]) of the same binder?
A: 0.36 nM

B5: DVD813 (bispecific antibody)
VH: B4 VH
VL: DIQMTQSPSSMSVSVGDRVTITCHSSQDINSNIGWLQQKPGKSFKGLIYHGTNLDDGVPSRFSGSGSGTDYTLTISSLQPEDFATYYCVQYAQFPWTFGGGTKLEIKRTVAAPDIVLTQSPDSLAVSLGERVTMNCKSSQSLLNSGMRKSFLAWYQQKPGQSPKLLIYWASTRESGVPDRFTGSGSGTDFTLTISSVQAEDVAVYYCKQSYHLFTFGSGTKLEIKR
notes: as for B2
Q: B5 was tested. Which EC50 (EGFR [3]) did it give?
A: 3.41 nM

Q: What about the EC50 (PLGF [4]) of the same binder?
A: 0.44 nM

B6: DVD843 (bispecific antibody)
VH: QVQLQESGPGLVKPSQTLSLTCTVSGYSISSDFAWNWIRQPPGKGLEWMGYISYSGNTRYQPSLKSRITISRDTSKNQFFLKLNSVTAADTATYYCVTAGRGFPYWGQGTLVTVSSASTKGPQVQLQQSGAELVKPGASVKISCKASGYTFTDYYINWVKLAPGQGLEWIGWIYPGSGNTKYNEKFKGKATLTIDTSSSTAYMQLSSLTSEDTAVYFCVRDSPFFDYWGQGTLLTVSS
VL: B4 VL
notes: as for B3
Q: Which EC50 (EGFR [3]) does the source give for B6 here?
A: 3.65 nM

Q: And the EC50 (PLGF [4])?
A: 0.37 nM

B7: DVD842 (bispecific antibody)
VH: EVQLVESGGGLVQPGGSLRLSCAASGFTFTDNWISWVRQAPGKGLEWVGYISPNSGFTYYADSVKGRFTISADTSKNTAYLQMNSLRAEDTAVYYCARDNFGGYFDYWGQGTLVTVSSASTKGPQVQLQESGPGLVKPSQTLSLTCTVSGYSISSDFAWNWIRQPPGKGLEWMGYISYSGNTRYQPSLKSRITISRDTSKNQFFLKLNSVTAADTATYYCVTAGRGFPYWGQGTLVTVSS
VL: DIQMTQSPSSLSASVGDRVTITCRASQDVSTAVAWYQQKPGKAPKLLIYSASFLYSGVPSRFSGSGSGTDFTLTISSLQPEDFATTYYCQQSYTGTVTFGQGTKVEIKRTVAAPSVFIFPPDIQMTQSPSSMSVSVGDRVTITCHSSQDINSNIGWLQQKPGKSFKGLIYHGTNLDDGVPSRFSGSGSGTDYTLTISSLQPEDFATYYCVQYAQFPWTFGGGTKLEIKR
notes: as for B3
Q: For B7, which EC50 (DLL-4) is on record?
A: 0.36 nM

Q: And the EC50 (EGFR [2])?
A: 51.7 nM

B8: DVD340 (bispecific antibody)
VH: B7 VH
VL: DIQMTQSPSSLSASVGDRVTITCRASQDVSTAVAWYQQKPGKAPKLLIYSASFLYSGVPSRFSGSGSGTDFTLTISSLQPEDFATTYYCQQSYTGTVTFGQGTKVEIKRTVAAPDIQMTQSPSSMSVSVGDRVTITCHSSQDINSNIGWLQQKPGKSFKGLIYHGTNLDDGVPSRFSGSGSGTDYTLTISSLQPEDFATYYCVQYAQFPWTFGGGTKLEIKR
notes: DVD-Ig; HC S, LC S; variable parts only
Q: Which EC50 (DLL-4) does the source give for B8 here?
A: 0.32 nM

Q: What about the EC50 (EGFR [2]) of the same binder?
A: 189 nM

B9: AB011 (antibody, V domains shown)
VH: EVQLLESGGGLVQPGGSLRLSCTASGFTFSSYAMNWVRQAPGKGLEWVSAISGSGGTTFYADSVKGRFTISRDNSRTTLYLQMNSLRAEDTAVYYCAKDLGWSDSYYYYYGMDVWGQGTTVTVSS
VL: DIQMTQFPSSLSASVGDRVTITCRASQGIRNDLGWYQQKPGKAPKRLIYAASRLHRGVPSRFSGSGSGTEFTLTISSLQPEDFATYYCLQHNSYPCSFGQGTKLEIKR
notes: parent antibody; also called IGF1R
Q: Which EC50 (IGF1R) does the source give for B9 here?
A: 0.24 nM and 0.26 nM

B10: DVD341 (bispecific antibody)
VH: B6 VH
VL: B5 VL
notes: as for B8
Q: B10 was tested. Which EC50 (EGFR [3]) did it give?
A: 3.41 nM

Q: And the EC50 (PLGF [4])?
A: 0.74 nM

B11: AB062 (antibody, V domains shown)
VH: QVQLQQWGAGLLKPSETLSLTCAVYGGSFSGYYWSWIRQPPGKGLEWIGEINHSGSTNYNPSLKSRVTISVETSKNQFSLKLSSVTAADTAVYYCARDKWTWYFDLWGRGTLVTVSS
VL: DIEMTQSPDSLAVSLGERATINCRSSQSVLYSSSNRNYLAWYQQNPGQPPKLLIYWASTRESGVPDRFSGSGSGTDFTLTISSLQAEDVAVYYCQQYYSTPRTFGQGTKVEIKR
notes: parent antibody
Q: With B11 as the binder, how does the EC50 (ErbB3) read?
A: 1.19 nM and 1.36 nM and 1.34 nM

B12: DVD342 (bispecific antibody)
VH: B3 VH
VL: B2 VL
notes: as for B8
Q: B12 was tested. Which EC50 (PLGF [1]) did it give?
A: 0.2 nM

Q: What about the EC50 (EGFR [2]) of the same binder?
A: 120 nM

B13: AB063 (antibody, V domains shown)
VH: EVQLVESGGGLVQPGGSLRLSCAASGFTFSIYSMNWVRQAPGKGLEWVSYISSSSSTIYYADSVKGRFTISRDNAKNSLYLQMNSLRDEDTAVYYCARDRGDFDAFDIWGQGTMVTVSS
VL: DIQMTQSPSSLSASVGDRVTITCQASQDITNYLNWYQQKPGKAPKLLIYDASNLETGVPSRFSGSGSGTDFTFTISSLQPEDIATYNCQQCENFPITFGQGTRLEIKR
notes: parent antibody
Q: B13 was tested. Which EC50 (ErbB3) did it give?
A: 0.86 nM and 1.11 nM

B14: AB067 (antibody, V domains shown)
VH: EVQLLESGGGLVQPGGSLRLSCAASGFTFSHYVMAWVRQAPGKGLEWVSSISSSGGWTLYADSVKGRFTISRDNSKNTLYLQMNSLRAEDTAVYYCTRGLKMATIFDYWGQGTLVTVSS
VL: QSALTQPASVSGSPGQSITISCTGTSSDVGSYNVVSWYQQHPGKAPKLIIYEVSQRPSGVSNRFSGSKSGNTASLTISGLQTEDEADYYCCSYAGSSIFVIFGGGTKVTVLG
notes: parent antibody
Q: B14 was tested. Which EC50 (ErbB3) did it give?
A: 1.4 nM and 2.03 nM

B15: AB005 (antibody, V domains shown)
VH: EVQLVQSGGGLVKPGGSLRLSCAASGFTFSSYAMHWVRQAPGKGLEWVAVISYDGSNKYYADSVKGRFTISRDNSKNTLYLQMNSLRAEDTAVYYCARFSGWPNNYYYYGMDVWGQGTTVTVSS
VL: DVVMTQSPLSLPVTPGEPASISCRSSQSLLHSNGFNYVDWYLQKPGQSPHLLIYFGSYRASGVPDRFSGSGSGTDFTLKISRVEAEDVGVYYCMQALQTPPWTFGQGTKVEIRR
notes: parent antibody; also called RON
Q: Which EC50 (RON) does the source give for B15 here?
A: 0.19 nM and 0.24 nM

From patent publication US20110263827A1 (AbbVie / Abbott, published 2011)
